Laboratory results taken from patent US12187807B2, “Antibody molecules to C5AR1 and uses thereof” (Visterra, Inc., priority 2020, dated 2025).

Experiments:
Test in all cases: Alanine scanning / mutagenesis epitope mapping of C5aR1
Type in all cases: binding
[1] = molecular target: T1, C5aR1 mutants (N-terminus, ECL1, ECL2, ECL3) (Homo sapiens, UniProt P21730, E179A/K279N); conditions: E179A
T1 sequence (P21730 with tags, fused parts or gaps E179A/K279N): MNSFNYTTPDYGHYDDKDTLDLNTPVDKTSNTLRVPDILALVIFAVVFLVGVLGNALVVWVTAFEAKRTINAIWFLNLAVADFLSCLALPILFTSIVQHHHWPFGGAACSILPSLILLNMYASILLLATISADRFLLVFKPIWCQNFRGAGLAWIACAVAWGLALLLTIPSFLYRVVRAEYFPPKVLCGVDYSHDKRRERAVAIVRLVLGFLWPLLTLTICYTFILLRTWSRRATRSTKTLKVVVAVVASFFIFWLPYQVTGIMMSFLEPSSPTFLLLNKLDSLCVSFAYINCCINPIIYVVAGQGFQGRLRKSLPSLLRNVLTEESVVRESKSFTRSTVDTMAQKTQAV
From the text: (§1) FIG. 5A is a diagram showing the results of alanine scanning mutations of site I interaction with mab 583. The N-terminal amino acid sequence of C5aR1 is listed across the top of the figure. Glycosylation sites are indicated by rectangle boxes. The only natural glycosylation site is at position N5. The other sites were introduced by mutagenesis. Mutations that abolished clone 583 binding are circled. The sulfated tyrosines at positions 11 and 14 are marked with a star sign. FIG. 5B is a diagram showing results of alanine scanning mutations of site I interaction with mab 66. Mutations that abolished clone 66 binding are circled. The sulfated tyrosines at positions 11 and 14 are marked with a star sign.
(§2) Ala substitutions of T8 & D10 moderately reduces its affinity while Y11 & D15 abolishes mAb binding. […] N-glycosylation of at N17 or D17P also abolishes mAb binding. N5 glycan is tolerated but a tandem glycosylation (N5 & N17) is not tolerated. mAb core epitopes are T8-G12 but nature of AA present in D15-D18 influence its binding. […] The core epitope appears to be located near T8-G12, with additional contributions from D15-D18.
(§3) Clone 66 was previously characterized as a site I binder and its binding is dependent on tyrosine sulfation at positions 11Y and/or 14Y. […] It should be noted that the only the only non-human species to retain clone 66 binding was baboon, which is the only NHP that retains the DYGHY motif.
(§4) However, it was unknown if additional contacts were made with ECL1 or ECL3. […] The data is highlighted in FIG. 5C-5E.
(§5) The core epitope of clone 11 is from E180-P183; the core epitope of clone 329 is from E180-P184; and the core epitope of clone 336 is from R178-P183. […] The data for clones 11, 329, and 336 is highlighted in FIG. 5F.

[2] = molecular target: T2, C5aR1 mutants (N-terminus, ECL1, ECL2, ECL3) (Homo sapiens, UniProt P21730, K279N/Y14F); conditions: Y14F
T2 sequence (P21730 with tags, fused parts or gaps Y14F/K279N): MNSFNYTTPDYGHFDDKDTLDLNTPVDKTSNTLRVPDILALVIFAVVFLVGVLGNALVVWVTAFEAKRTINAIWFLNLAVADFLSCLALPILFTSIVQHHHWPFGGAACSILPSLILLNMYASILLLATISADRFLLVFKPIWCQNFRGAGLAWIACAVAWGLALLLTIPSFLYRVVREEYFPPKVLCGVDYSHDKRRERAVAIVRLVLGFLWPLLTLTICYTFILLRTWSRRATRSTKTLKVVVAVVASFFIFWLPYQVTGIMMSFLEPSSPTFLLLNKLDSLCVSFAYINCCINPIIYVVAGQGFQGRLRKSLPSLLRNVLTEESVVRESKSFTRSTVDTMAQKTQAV
From the text: as §1, §2, §3, §4, §5

[3] = molecular target: T3, C5aR1 mutants (N-terminus, ECL1, ECL2, ECL3) (Homo sapiens, UniProt P21730, G12E/K279N); conditions: G12E (as in cyno and rhesus)
T3 sequence (P21730 with tags, fused parts or gaps G12E/K279N): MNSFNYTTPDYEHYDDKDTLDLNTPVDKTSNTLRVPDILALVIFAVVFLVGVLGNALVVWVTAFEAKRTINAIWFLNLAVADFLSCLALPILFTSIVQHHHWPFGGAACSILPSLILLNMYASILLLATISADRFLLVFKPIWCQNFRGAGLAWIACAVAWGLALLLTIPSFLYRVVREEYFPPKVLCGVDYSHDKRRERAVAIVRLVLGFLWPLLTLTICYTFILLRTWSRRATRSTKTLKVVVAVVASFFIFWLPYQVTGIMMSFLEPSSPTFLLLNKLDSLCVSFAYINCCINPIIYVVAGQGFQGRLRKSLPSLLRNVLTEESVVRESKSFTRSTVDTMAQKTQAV
From the text: as §1, §2, §3, §4, §5

[4] = molecular target: T4, C5aR1 mutants (N-terminus, ECL1, ECL2, ECL3) (Homo sapiens, UniProt P21730, K17N/K279N); conditions: insertion of a glycan at K17N
T4 sequence (P21730 with tags, fused parts or gaps K17N/K279N): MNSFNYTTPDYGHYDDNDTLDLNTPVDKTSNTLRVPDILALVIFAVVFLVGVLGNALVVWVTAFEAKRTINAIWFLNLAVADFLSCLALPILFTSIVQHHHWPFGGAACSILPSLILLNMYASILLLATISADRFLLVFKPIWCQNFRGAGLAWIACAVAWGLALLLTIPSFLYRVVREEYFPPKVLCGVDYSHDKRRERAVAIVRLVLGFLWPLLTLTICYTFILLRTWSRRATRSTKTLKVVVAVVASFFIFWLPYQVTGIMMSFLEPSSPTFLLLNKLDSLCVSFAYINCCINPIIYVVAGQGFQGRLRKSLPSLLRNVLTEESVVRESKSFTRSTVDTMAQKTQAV
From the text: as §1, §2, §3, §4, §5

[5] = molecular target: T5, C5aR1 mutants (N-terminus, ECL1, ECL2, ECL3) (Homo sapiens, UniProt P21730, K279N/T8A); conditions: T8A
T5 sequence (P21730 with tags, fused parts or gaps T8A/K279N): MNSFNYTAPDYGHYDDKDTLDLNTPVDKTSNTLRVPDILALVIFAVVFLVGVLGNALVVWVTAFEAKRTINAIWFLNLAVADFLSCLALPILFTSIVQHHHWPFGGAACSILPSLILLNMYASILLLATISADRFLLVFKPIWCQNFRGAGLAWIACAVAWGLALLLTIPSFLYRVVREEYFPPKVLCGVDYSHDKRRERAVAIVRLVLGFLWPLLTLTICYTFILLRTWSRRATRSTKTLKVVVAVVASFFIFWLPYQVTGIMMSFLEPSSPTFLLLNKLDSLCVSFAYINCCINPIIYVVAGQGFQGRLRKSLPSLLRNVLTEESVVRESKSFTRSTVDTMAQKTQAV
From the text: as §1, §2, §3, §4, §5

B1: clone 329: anti-C5aR1 Site II antibody; VH SEQ ID NO: 492, VL SEQ ID NO: 552 (antibody, V domains shown)
VH: QVQLQQSGAELTKPGASVKLSCKASGYTFTNYWMHWVKQRPGQGLEWIGYLNPSSGYTKYNQKFKDKATLTADKSSSTAYMQLNSLTYEDSAVYYCTRSGGDNYGNPYYFDRWGQGTTVTVSS
VL: DVVMTQTPLSLTVSLGDQASISCRSSQSLVHSNGNTYLHWYLQKPGQSPKFLIYKVSNRFSGVPDRFSGSGSGTDFRLKISRVEAEDLGVYFCSQSTLVPLTFGAGTKLEIK
binding to C5aR1 mutant [1]: did not reduce antibody affinity

B2: clone 66: anti-C5aR1 Site I antibody; VH SEQ ID NO: 483, VL SEQ ID NO: 543 (antibody, V domains shown)
VH: QVQLQQSDAELVKPGASVKISCKASGYTFIDHAIHWVKQRPEQGLEWIGYISPGNGEIKYNEKFKAKATLTADKSSSAAYMQLNSLTSADSAVYFCKRALFYYTGKYQPMDYWGQGTTVTDSS
VL: DIVMTQSQKFMSTTAGDRVSITCKASQNVGSAVVWYQQKPGRSPKLLIYSSSIRYTGVPDRFTGSGSGTDFTLTINSVQSEDLADYFCQQYNSFPLTFGAGTKLEIK
binding to C5aR1 mutant [2]: abolished binding
binding to C5aR1 mutant [3]: abolishes binding

B3: clone 583: anti-C5aR1 Site I antibody; VH SEQ ID NO: 536, VL SEQ ID NO: 595 (antibody, V domains shown)
VH: EVQLVESGGGLVKPGGSLKLSCAASGFTFNAYAMSWVRQTPEKRLEWVASISTGGNTYCPDSVKDRFTVSRDNVRNILYLQMSSLRSEDTAMYYCTRGYQRFSGFAYWGQGTLVTVS
VL: DVVMTQTPLSPPVSLGYQASISCRSSQSLVHSNGNTYLNWYLQKPGQSPKLLIYKVSNRLSGVPDRFSGSGSGTDFTLKISRVETEDLGVYFCSQSTHVPYTFGGGTKLEIK
binding to C5aR1 mutant [4]: abolishes binding
binding to C5aR1 mutant [5]: moderately reduce binding
